Six molecules from US20260266848A1, “COMPOSITIONS AND METHODS FOR DIAGNOSING AND TREATING DYSTONIA” (Duke University, priority 2023, published 2026) can be followed below.

Assay [1] has as its system DYT-TOR1A MEF EVs. In words: Quantitative LC-MS/MS proteomics of EVs from drug-treated DYT-TOR1A MEF cultures (ritonavir, salubrinal). More on the design: key to RTV Corrective Direction / RTV Corrective Direction, Grwd1 / RTV Corrective Direction, Srrm2 / RTV Corrective Direction, Rbm17 / RTV Corrective Direction, Dcaf8 / RTV Corrective Direction, Edil3 / RTV Corrective Direction, Timp3 / RTV Corrective Direction, Heatr3 / RTV Corrective Direction, Brd4 / RTV Corrective Direction, P3h4 / RTV Corrective Direction, Pacsin3 / RTV Corrective Direction, Naa50 / RTV Corrective Direction, Lpar6 / RTV Corrective Direction, Ndrg1 / RTV Corrective Direction, Kntc1 / RTV Corrective Direction, Cdk11b / RTV Corrective Direction, Sumo1 / RTV Corrective Direction, Lsm4 / RTV Corrective Direction, Hmga2 / RTV Corrective Direction, Cstf1 / RTV Corrective Direction, Tes / RTV Corrective Direction, Sbno1 / RTV Corrective Direction, Unc119b / RTV Corrective Direction, Cfdp1 / RTV Corrective Direction, Sec61b: YES = protein abundance effect opposite to DYT/WT. Particulars: EV protein abundance; for RTV Corrective Direction: DYT + RTV (ritonavir) vs DYT, direction compared with DYT/WT; for DYT + RTV/DYT Cohen's d: ritonavir (RTV)-treated DYT vs DYT. In kind it is cell-based, mouse.

The subject of assay [2] is WT MEF EVs. In words: Quantitative LC-MS/MS proteomics of EVs from ISRIB-treated WT MEF cultures. It is filed as cell-based, mouse. More on the design: key to ISRIB and DYT Parallel Direction / ISRIB and DYT Parallel Direction, Ctdsp1 / ISRIB and DYT Parallel Direction, Pcdh19 / ISRIB and DYT Parallel Direction, Tspan7 / ISRIB and DYT Parallel Direction, Myo1e / ISRIB and DYT Parallel Direction, Plpp3 / ISRIB and DYT Parallel Direction, Sh3bp4 / ISRIB and DYT Parallel Direction, Dnajc7 / ISRIB and DYT Parallel Direction, Drg1 / ISRIB and DYT Parallel Direction, Maea: YES = protein abundance effect similar to DYT/WT. To be noted: EV protein abundance; for WT + ISRIB/WT Cohen's d: ISRIB-treated WT vs WT; for ISRIB and DYT Parallel Direction: WT + ISRIB vs WT, direction compared with DYT/WT.

B1: Alad (protein, UniProt P10518 1-330, looked up)
Delta-aminolevulinic acid …: MHHQSVLHSGYFHPLLRSWQTAASTVSASNLIYPIFVTDVPDDVQPIASLPGVARYGVNQLEEMLRPLVEAGLRCVLIFGVPSRVPKDEQGSAADSEDSPTIEAVRLLRKTFPSLLVACDVCLCPYTSHGHCGLLSENGAFLAEESRQRLAEVALAYAKAGCQVVAPSDMMDGRVEAIKAALLKHGLGNRVSVMSYSAKFASCFYGPFRDAAQSSPAFGDRRCYQLPPGARGLALRAVARDIQEGADMLMVKPGLPYLDMVREVKDKHPELPLAVYQVSGEFAMLWHGAQAGAFDLRTAVLETMTAFRRAGADIIITYFAPQLLKWLKEE
Turning to B1, in assay [1], the “RTV Corrective Direction” value is listed as “YES” and the “DYT + RTV/DYT Cohen's d” value was determined as 1.57. For the same molecule, in assay [2], the “WT + ISRIB/WT Cohen's d” value is recorded as −1.50; the “ISRIB and DYT Parallel Direction” value is on record as “YES”.

B2: Pdia3 (protein, UniProt P27773 25-505, looked up)
Protein disulfide-isomerase A3: SDVLELTDENFESRVSDTGSAGLMLVEFFAPWCGHCKRLAPEYEAAATRLKGIVPLAKVDCTANTNTCNKYGVSGYPTLKIFRDGEEAGAYDGPRTADGIVSHLKKQAGPASVPLRTEEEFKKFISDKDASVVGFFRDLFSDGHSEFLKAASNLRDNYRFAHTNIESLVKEYDDNGEGITIFRPLHLANKFEDKTVAYTEKKMTSGKIKKFIQDSIFGLCPHMTEDNKDLIQGKDLLTAYYDVDYEKNAKGSNYWRNRVMMVAKKFLDAGHKLNFAVASRKTFSHELSDFGLESTTGEVPVVAIRTAKGEKFVMQEEFSRDGKALEQFLQEYFDGNLKRYLKSEPIPESNEGPVKVVVAENFDDIVNEEDKDVLIEFYAPWCGHCKNLEPKYKELGEKLSKDPNIVIAKMDATANDVPSPYEVKGFPTIYFSPANKKLTPKKYEGGRELNDFISYLQREATNPPIIQEEKPKKKKKAQEDL
On to B2, for which, in assay [1], the “RTV Corrective Direction” value was “YES” and the “DYT + RTV/DYT Cohen's d” value is given as 0.37. Further, in assay [2], the “WT + ISRIB/WT Cohen's d” value turned out to be 0.39; the “ISRIB and DYT Parallel Direction” value is recorded as “YES”.

B3: Adamts5 (protein, UniProt Q9R001 262-930, looked up)
A disintegrin and …: SISRARQVELLLVADSSMARMYGRGLQHYLLTLASIANRLYSHASIENHIRLAVVKVVVLTDKDTSLEVSKNAATTLKNFCKWQHQHNQLGDDHEEHYDAAILFTREDLCGHHSCDTLGMADVGTICSPERSCAVIEDDGLHAAFTVAHEIGHLLGLSHDDSKFCEENFGTTEDKRLMSSILTSIDASKPWSKCTSATITEFLDDGHGNCLLDLPRKQILGPEELPGQTYDATQQCNLTFGPEYSVCPGMDVCARLWCAVVRQGQMVCLTKKLPAVEGTPCGKGRVCLQGKCVDKTKKKYYSTSSHGNWGSWGPWGQCSRSCGGGVQFAYRHCNNPAPRNSGRYCTGKRAIYRSCSVTPCPPNGKSFRHEQCEAKNGYQSDAKGVKTFVEWVPKYAGVLPADVCKLTCRAKGTGYYVVFSPKVTDGTECRPYSNSVCVRGRCVRTGCDGIIGSKLQYDKCGVCGGDNSSCTKIIGTFNKKSKGYTDVVRIPEGATHIKVRQFKAKDQTRFTAYLALKKKTGEYLINGKYMISTSETIIDINGTVMNYSGWSHRDDFLHGMGYSATKEILIVQILATDPTKALDVRYSFFVPKKTTQKVNSVISHGSNKVGPHSTQLQWVTGPWLACSRTCDTGWHTRTVQCQDGNRKLAKGCLLSQRPSAFKQCLLKKC
As to B3, in assay [1], the “RTV Corrective Direction” value was “YES” and the “DYT + RTV/DYT Cohen's d” value came to 0.76. Further, in assay [2], the “WT + ISRIB/WT Cohen's d” value is listed as −2.06; the “ISRIB and DYT Parallel Direction” value was “YES”.

B4: Atg7 (protein, UniProt Q9D906 1-698, looked up)
Ubiquitin-like …: MGDPGLAKLQFAPFNSALDVGFWHELTQKKLNEYRLDEAPKDIKGYYYNGDSAGLPTRLTLEFSAFDMSASTPAHCCPAMGTLHNTNTLEAFKTADKKLLLEQSANEIWEAIKSGAALENPMLLNKFLLLTFADLKKYHFYYWFCCPALCLPESIPLIRGPVSLDQRLSPKQIQALEHAYDDLCRAEGVTALPYFLFKYDDDTVLVSLLKHYSDFFQGQRTKITVGVYDPCNLAQYPGWPLRNFLVLAAHRWSGSFQSVEVLCFRDRTMQGARDVTHSIIFEVKLPEMAFSPDCPKAVGWEKNQKGGMGPRMVNLSGCMDPKRLAESSVDLNLKLMCWRLVPTLDLDKVVSVKCLLLGAGTLGCNVARTLMGWGVRHVTFVDNAKISYSNPVRQPLYEFEDCLGGGKPKALAAAERLQKIFPGVNARGFNMSIPMPGHPVNFSDVTMEQARRDVEQLEQLIDNHDVIFLLMDTRESRWLPTVIAASKRKLVINAALGFDTFVVMRHGLKKPKQQGAGDLCPSHLVAPADLGSSLFANIPGYKLGCYFCNDVVAPGDSTRDRTLDQQCTVSRPGLAVIAGALAVELMVSVLQHPEGGYAIASSSDDRMNEPPTSLGLVPHQIRGFLSRFDNVLPVSLAFDKCTACSPKVLDQYEREGFTFLAKVFNSSHSFLEDLTGLTLLHQETQAAEIWDMSDEETV
For the molecule B4, in assay [1], the “RTV Corrective Direction” value is “YES” and the “DYT + RTV/DYT Cohen's d” value came to 0.61. Besides, in assay [2], the “WT + ISRIB/WT Cohen's d” value is −2.35; the “ISRIB and DYT Parallel Direction” value is given as “YES”.

B5: Ptk2 (protein, UniProt P34152 2-1052, looked up)
Focal adhesion kinase 1: AAAYLDPNLNHTPSSSTKTHLGTGMERSPGAMERVLKVFHYFESSSEPTTWASIIRHGDATDVRGIIQKIVDSHKVKHVACYGFRLSHLRSEEVHWLHVDMGVSSVREKYELAHPPEEWKYELRIRYLPKGFLNQFTEDKPTLNFFYQQVKSDYMQEIADQVDQEIALKLGCLEIRRSYWEMRGNALEKKSNYEVLEKDVGLKRFFPKSLLDSVKAKTLRKLIQQTFRQFANLNREESILKFFEILSPVYRFDKECFKCALGSSWIISVELAIGPEEGISYLTDKGCNPTHLADFNQVQTIQYSNSEDKDRKGMLQLKIAGAPEPLTVTAPSLTIAENMADLIDGYCRLVNGATQSFIIRPQKEGERALPSIPKLANSEKQGMRTHAVSVSETDDYAEIIDEEDTYTMPSTRDYEIQRERIELGRCIGEGQFGDVHQGVYLSPENPALAVAIKTCKNCTSDSVREKFLQEALTMRQFDHPHIVKLIGVITENPVWIIMELCTLGELRSFLQVRKYSLDLASLILYAYQLSTALAYLESKRFVHRDIAARNVLVSSNDCVKLGDFGLSRYMEDSTYYKASKGKLPIKWMAPESINFRRFTSASDVWMFGVCMWEILMHGVKPFQGVKNNDVIGRIENGERLPMPPNCPPTLYSLMTKCWAYDPSRRPRFTELKAQLSTILEEEKVQQEERMRMESRRQATVSWDSGGSDEAPPKPSRPGYPSPRSSEGFYPSPQHMVQTNHYQVSGYPGSHGIPAMAGSIYQGQASLLDQTELWNHRPQEMSMWQPSVEDSAALDLRGMGQVLPPHLMEERLIRQQQEMEEDQRWLEKEERFLKPDVRLSRGSIDREDGSFQGPTGNQHIYQPVGKPDPAAPPKKPPRPGAPGHLSNLSSISSPADSYNEGVKLQPQEISPPPTANLDRSNDKVYENVTGLVKAVIEMSSKIQPAPPEEYVPMVKEVGLALRTLLATVDETIPALPASTHREIEMAQKLLNSDLGELISKMKLAQQYVMTSLQQEYKKQMLTAAHALAVDAKNLLDVIDQARLKMLGQTRPH
Turning to B5, in assay [1], the “RTV Corrective Direction” value is given as “YES” and the “DYT + RTV/DYT Cohen's d” value was 0.10. Moreover, in assay [2], the “WT + ISRIB/WT Cohen's d” value is on record as −3.26; the “ISRIB and DYT Parallel Direction” value is reported as “YES”.

B6: Dbi (protein, UniProt P31786 2-87, looked up)
Acyl-CoA-binding protein: SQAEFDKAAEEVKRLKTQPTDEEMLFIYSHFKQATVGDVNTDRPGLLDLKGKAKWDSWNKLKGTSKESAMKTYVEKVDELKKKYGI
On to B6, for which, in assay [1], the “RTV Corrective Direction” value is “YES” and the “DYT + RTV/DYT Cohen's d” value is on record as 0.91. Moreover, in assay [2], the “WT + ISRIB/WT Cohen's d” value is −2.44; the “ISRIB and DYT Parallel Direction” value is listed as “YES”.
